Ten molecules from patent publication US20220001000A1 (Regeneron, published 2022) can be followed below.

Broadly, the EC50 is the concentration at which the effect is half-maximal. The low end stands for higher potency in that assay, the high end for lower potency in that assay. For orientation: Kd means the constant that tells how readily two partners part at equilibrium. A lower Kd goes with higher affinity. Broadly, the koff is the rate constant with which the complex falls apart. A lower koff goes with a long-lived complex. For orientation: kon means the rate constant with which the complex forms. Lower therefore signals slower complex formation. One may read the t½ as how long it takes for the measured level to halve.

Positions count from the first letter of the chain named.

Experiment [1] has as its target T1, HLA-A2/HPV16E7:11-19 on peptide-pulsed T2 cells (human; human papillomavirus type 16). Kind of experiment: MSD cell binding, T2.
Experimental: To determine anti-HLA-A2/HPV16E7 monoclonal antibody specificity, peptide-pulsed T2 cells loaded with target or off-target peptides (identified in the previous Example) were used. […] Approximately 6 million T2 cells per T-75 flask were cultured for 24 hours at 26° C. in 9 mL of AIM V® Medium containing 10 μg of human b2m and 100 μg of HPV16E7 peptide or off-target peptide (Tables 6 and 7). Peptide-loaded T2 cells were washed once with PBS without Ca2+/Mg2+ and counted. Approximately 10,000 cells per well of the peptide-loaded T2 or untreated T2 in cell washing buffer were seeded into the 96-well carbon electrode plates (MULTI-ARRAY high bind plate, MSD) and incubated for 1 hour at 37° C. to allow cells to adhere to the plate. Nonspecific binding sites were blocked using 2% BSA (w/v) in PBS for 1 hour at room temperature. […] Plates were incubated for 1 hour at room temperature, then washed to remove the unbound antibody using an AquaMax2000 plate washer (MDS Analytical Technologies). Plate-bound antibodies were detected with SULFO-TAG™-conjugated goat polyclonal anti-human IgG antibody specific for the Fc gamma fragment (Jackson Immunoresearch, Meso Scale Discovery) for 1 hour at room temperature. After washes, the plates were developed with the Read Buffer (MSD) according to manufacturer's recommended procedure, and the luminescent signals were recorded with a SECTOR Imager 600 (Meso Scale Discovery) instrument. The luminescence intensity, measured in relative light units (RLU), was recorded to indicate the binding intensity of each antibody at the range of concentrations.
For experiment [2], the target named is monomeric HLA-A2:HPV16E7(11-19) peptide complex, soluble (human; human papillomavirus type 16). Kind of experiment: SPR 25C, mAb captured.
Experiment [3] deals with HLA-A2 with off-target peptide CAMKK1:388-396 on pulsed T2 cells (human). In words: FACS, T2, 10 ug/ml.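 Further: Peptide-pulsed T2 cells held overnight at 26 °C, then stained with antibodies at 10 µg/ml, WI values reported as fold change versus unstained cells.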
Experimental: (§1) T2 cells were then incubated overnight at 26° C., washed in staining buffer and stained with the indicated antibodies at a concentration of 10 μg/ml following the protocol described above. WI values were calculated and presented as fold change over unstained cells.
Experiment [4] deals with HLA-A2 with off-target peptide USP47:691-699 on pulsed T2 cells (human). Kind of experiment: FACS, T2, 10 ug/ml.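 Further: Peptide-pulsed T2 cells held overnight at 26 °C, then stained with antibodies at 10 µg/ml, WI values reported as fold change versus unstained cells.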 On the technique in general: Flow cytometry measures light scatter and fluorescence of single cells or particles in a stream.
Experimental: as §1
The target in experiment [5] is T1, HLA-A2/HPV16E7:11-19 on peptide-pulsed …. In words: FACS, T2, 10 ug/ml.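 Further: Peptide-pulsed T2 cells held overnight at 26 °C, then stained with antibodies at 10 µg/ml, WI values reported as fold change versus unstained cells.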
Experimental: as §1
Experiment [6] addresses HLA-A2 with off-target peptide SBK3:285-293 on pulsed T2 cells (human). In words: FACS, T2, 10 ug/ml.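 Further: Peptide-pulsed T2 cells held overnight at 26 °C, then stained with antibodies at 10 µg/ml, WI values reported as fold change versus unstained cells.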
Experimental: as §1
Experiment [7] addresses HLA-A2 with off-target peptide NBR1:357-365 on pulsed T2 cells (human). In words: FACS, T2, 10 ug/ml.
Experimental: as §1
Experiment [8] deals with T2, HLA-A2 with off-target peptide CHPF:463:471 on pulsed T2 cells (human).
T2 construct: also called Chondroitin sulfate synthase 2
In words: FACS, T2, 10 ug/ml.
Experimental: as §1

The target in experiment [9] is T3, HLA-A2 with off-target peptide CBL:83-91 on pulsed T2 cells (human).
T3 construct: also called E3 ubiquitin-protein ligase CBL
In words: FACS, T2, 10 ug/ml.
Experimental: as §1

The target in experiment [10] is HLA-A2 with off-target peptide PKD1:2694-2702 on pulsed T2 cells (human). In words: FACS, T2, 10 ug/ml.
Experimental: as §1
The target in experiment [11] is HLA-A2 with off-target peptide PPP4R4:20-28 on pulsed T2 cells (human). In words: FACS, T2, 10 ug/ml.
Experimental: as §1
Experiment [12] deals with T4, HLA-A2 with off-target peptide SH3GLB1:244-252 on pulsed T2 cells (human).
T4 construct: also called Endophilin-B1
Kind of experiment: FACS, T2, 10 ug/ml.
Experimental: as §1

In experiment [13] the target is HLA-A2 with HPV16E7:11-19 alanine scanning peptide […] (L15A) on pulsed T2 cells (human; human papillomavirus type 16). In words: FACS, T2, Ala scan.
Experimental: (§2) Alanine scanning was performed to determine which residues in the HPV16E7:11-19 peptide were critical for antibody binding. T2 cells were pulsed with alanine scanning peptides and stained with HPV16E7:11-19 antibodies as described above.
Experiment [14] addresses HLA-A2 with HPV16E7:11-19 alanine scanning peptide […] (L13A) on pulsed T2 cells (human; human papillomavirus type 16). Kind of experiment: FACS, T2, Ala scan.
Experimental: as §2

B1: H4sH17670P (antibody, V domains shown)
VH: EVQLVESGGDLVQPGTSLRLSCEASGFTLSFYAMYWVRQAPGKELELVSGISGNGESMFYGNSVKGRFSISRDNSKNTLYLQMGSVRAEDMAVYYCARAYASGNSYFFYYGMDVWGQGTTVTVSS
VL: not shown
As for B1, the EC50 in [1] is 1.3 nM. The affinity in [2], expressed as Kd, was 17.5 nM.

B2: H4sH21080P (antibody, V domains shown)
VH: EVQLVESGGGLVQPGGSLRLSCAASGFTFSSYAMSWVRQAPGKGLEWVSGISGSGGTTYDADSVKGRFTISRDNSKNTLYLQMHSLRAEDTAAYYCAKDWNYGPYYYFGMDVWGQGTTVTVSS
VL: not shown
B2 showed a concentration giving a half-maximal response (EC50) in experiment [1] of 0.22 nM. Besides, in [2], the dissociation constant Kd turned out to be 218 nM, the koff amounted to 0.039 s⁻¹, the on-rate constant (kon) came out at 179000 M⁻¹ s⁻¹ and the t½ worked out at 0.3 min.

B3: H4sH17675P (antibody, V domains shown)
VH: EVQLVESGGGLVQPGASLRLSCEASGFTLSFYAMHWVRQAPGKELEYVSGISGNGNSIYYRDSVKGRFTISRDNSKNTLYLQMGSVGAEDMAVYYCARSYSSGNSYYYYYGMDVWGQGTTVTVSS
VL: DIQMTQSPSSLSASVGDRITITCRASQSISSYLNWYQQKPGKAPNLLIYAASNLQSGVPSRFSGSGSGTDFTLTISSLQPEDFATYYCQQSYSTPPITFGQGTRLEIKR
B3: the “Fold change over unstained” value was found to be 2.4 fold in experiment [3]; 13.3 fold in experiment [4]; 1200 fold in experiment [5]; 2.9 fold in experiment [6]; 2.2 fold in experiment [7]; 5 fold in experiment [8]. In addition, the “Fold change over unstained” value is 4.9 fold in [9], 2.9 fold in experiment [10], 5.5 fold in [11] and 10.5 fold in experiment [12]. For the same molecule, the “FACS binding (fold over unstained)” value in [13] was 1150 fold; in [14] it was 527 fold. In experiment [1], the response was half-maximal at 1.1 nM (EC50). Besides, in experiment [2], the affinity, expressed as Kd, was 23.1 nM. Further, in experiment [2], the koff was found to be 0.00138 s⁻¹. For the same molecule, the kon in experiment [2] amounted to 59900 M⁻¹ s⁻¹. Also, in experiment [2], the t½ came out at 8.4 min.

B4: H4sH17363N (antibody, V domains shown)
VH: EVQLLESGGGLVQPGGSLRLSCAASGFTFSSYAMTWVRQAPGMGLEWVSVISGSGSETYYADSVKGRFTISRDNSKNTLYLQMNSLRAEDTAVYYCVKDSSYRSSSRAYYYYGMDVWGLGTTVTVSS
VL: B3 VL with I19V, N45K, A51V, N53I, S76N, Y87S, S91T
B4: the “Fold change over unstained” value in [3] stood at 2 fold; in experiment [4] it was 0.6 fold; in [5], 1000 fold; in [6] it was 0.4 fold; in [7] it was 3.6 fold; in experiment [8], 7.4 fold. Also, the “Fold change over unstained” value was 19.5 fold in experiment [9], 1.2 fold in experiment [10], 6.1 fold in [11] and 13.6 fold in experiment [12]. For the same molecule, the “FACS binding (fold over unstained)” value in experiment [13] is 1020 fold; in experiment [14], 530 fold. The molecule further registered a half-maximal effective concentration (EC50) in [1] of 2.1 nM. Also, the dissociation constant (Kd) in [2] was determined as 17.6 nM. Also, the koff in [2] came to 0.00154 s⁻¹. The kon in experiment [2] amounted to 87200 M⁻¹ s⁻¹. This molecule displayed a t½ in [2] of 7.5 min.

B5: H4sH17364N (antibody, V domains shown)
VH: B4 VH with M43K
VL: B3 VL with I19V, N45K, A51V, N53I, Y87S, S91T
Turning to B5, the “Fold change over unstained” value in experiment [3] turned out to be 1 fold; in experiment [4] it was 1.3 fold; in [5] it was 986 fold; in experiment [6], 0.8 fold; in experiment [7], 3 fold; in [8], 10.9 fold. Moreover, the “Fold change over unstained” value in experiment [9] was found to be 23.9 fold; in experiment [10] it was 1 fold; in experiment [11], 9 fold; in [12], 15.2 fold. Also, the results for the “FACS binding (fold over unstained)” value in experiment [13] and in [14] were 1010 fold and 490 fold, respectively. The molecule also had an EC50 in experiment [1] of 2 nM. Moreover, binding in experiment [2] was characterised by a dissociation constant (Kd) of 18.3 nM. In [2], the dissociation rate constant (koff) turned out to be 0.00157 s⁻¹. In experiment [2], this molecule gave a kon of 85600 M⁻¹ s⁻¹. The same molecule showed a t½ in [2] of 7.4 min.

B6: H4sH17672P (antibody, V domains shown)
VH: B3 VH with A33S, K43R, S57N, Y80N, G87R, A92G, Y107N
VL: DIQMTQSPSSLSASVGDRVTITCRASQTISSYLNWYQQKPGKAPKLLIYAVSNLQSGVPSRFSGSGSGTDFTLTISSLQPEDFATYYCQQSYSTPPITFGQGTRLEIK
As for B6, the response in experiment [1] was half-maximal at 0.45 nM (EC50). Besides, in [2], the dissociation constant (Kd) came out at 6.37 nM, the off-rate constant (koff) turned out to be 0.000819 s⁻¹, the on-rate constant (kon) was 129000 M⁻¹ s⁻¹ and the t½ was 14.1 min.

B7: H4sH17930N (antibody, V domains shown)
VH: EVQLVESGGGLVQPGGSLRLSCAASGFTFSYYALHWVRQAPGKGLEYVSAISGNGGSTYYADSVKGRFTISRDKSMSTVYLQVGSLRAEDMAVYYCARSYASSSDYHYYYGMDVWGQGTTVTVSS
VL: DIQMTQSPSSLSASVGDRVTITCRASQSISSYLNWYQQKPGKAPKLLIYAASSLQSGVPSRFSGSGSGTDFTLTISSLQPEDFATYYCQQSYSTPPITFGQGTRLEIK
The molecule B7 displayed an EC50 in experiment [1] of 3.1 nM. In experiment [2], this molecule gave a dissociation constant (Kd) of 10.2 nM and a t½ of 14.5 min.

B8: H4sH17930N2 (antibody, V domains shown)
VH: B7 VH
VL: not shown
Consider B8, for which, in [2], the Kd came out at 9.57 nM and the t½ worked out at 14.6 min.

B9: H4sH21064P (antibody, V domains shown)
VH: EVQLVESGGGLVQPGGSLRLSCAASGFTFTFYAMHWVRQAPGKGLEYVSGISSNGGSTKYADSVKGRFTISRDNSKNTLYLQMGSLRAEDLAVYYCARSYASSSDYHYYYGMDVWGQGTTVTVSS
VL: not shown
As for B9, in [2], the Kd is 14.4 nM and the t½ was 14.6 min.

B10: H4sH21079P (antibody, V domains shown)
VH: EVQLVESGGGLVKPGGSLRLSCAASGFTFSNAWMSWVRQAPGKGLEWVGRIKTRADGGTTDYAAPVKGRFTISRDDSKNTLYLQLNSLKTEDTAVYYCTSHNWNYEDFDYWGQGTLVTVSS
VL: DIQMTQSPSSLSASVGDRVTITCRASQSISNYLNWYQQKPGKAPKLLIYAASSLQSGVPSRFSGSGSGTDFTLTISSLQPEEFATYYCQQSYSIPYTFGQGTKLEIK
Molecule B10 registered a concentration giving a half-maximal response (EC50) in experiment [1] of 1.1 nM. In experiment [2], the Kd amounted to 290 nM, the koff turned out to be 0.0109 s⁻¹, the on-rate (kon) is 37400 M⁻¹ s⁻¹ and the t½ stood at 1.1 min.
